Laboratory results as given in the DeepSol protein solubility set.

test: soluble on expression in E. coli; label from the status in PepcDB or PDB records

Sequence | soluble on expression in E. coli
MGGGRMGQHVETLVIGAGPAGLTTAYTLAKAGRGVTVLEMDETYVGGISRTVDYKGFKFDIGGHRFFSKSQEIVDLWNEILPDDFIDRPRLSRIYYREKFYAYPLKAFEALANLGVWTAAKCMASFGWAKLTPIAAPTTFHQWVRNQFGEKLFSIFFKTYTEKVWGMSCDEISADWASQRIKGLDLGAAIIDGVKRSLGLRGKAAEGGPKTLIESFRYPRKGPGMMWEACADKVMALGGDVRMGRKVDGLHFDKIAKLWTVAVTCADGRKEIYTADNVVSSAPIRELMQSISPTPISVFHAGELMYRDFITVVLIGKPQKELPDNWIYIHDPSVKVGRVQNFRSWSPEMIPDGVSTCLGLEYFCFEGDGLWVTSDEELVAQAKREIGKIGLMAPADVYDACVVRQHKAYPVYDDAYAEHVKMIRLDLKMHFPGLHLVGRNGMHKYNNQDHAMMTGLLTAENIIAGETLHDVWEVNEDAEYGEAGVSGARQALRSERAVPTKVAALEHHHHHH | not soluble
MSDEEEEDVNFKPGTEISSTKANYTVVRLLGEGGFGAVYLVQDNKSKKQSAMKVERKIEKRKHSKLKMEIAILKLVGSGKHFTQIVDRGKKDKEGFFFLVMELVGKSLADLKADRPDKVFSFATGLGVSCQCLEAVEELHKTGFIHRDLKPQNYACGLDEKRHNIYILDFGIARKYLNTKNELKTPRETVGFKGTVRFAPIACHRNTEMGPKDDCESWFYLLLDLIVPSGLPWRKLSDKHEVLKEKEECRKDKRSSLFAGLRQTDYLSKVLDYIDGRAYQDRVDYQFIYKNLAEACKVCNLDIDSPYDWELQKPEKTSKEPTSSKMP | not soluble
MVKMLTMDKILSKKIKVNWLGGVFWLLPNLLDLFSASKRKASVRPYQSLLELVQENFLNRYDLVHFSFNGDHDFFHFNDLQAIRSFNFTIEEEQLGAMQPDEVLLFEPVDRVTVELDQKGLSLIHSGKAFCASANYFKHWLKRVPQQDKVTLVWRKSGFELKQ | soluble
MGHHHHHHSHMKDSEKHIEVEVRKFLALKQTPDFHTVIGDTVTGLLERCKAEPSFYPRNCLMQLIQTHVLSYSLCPDLMEIALKKKDVQLLQLCLQQFPDIPESVTCACLKIFLSIGDDSLQETDVNMESVFDYSINSVHDEKMEEQTEILQNGFNPEEDKCNNCDQELNKKPQDETKESTSCPVVQKRAALLNAILHSAYSETFLLPHLKDIPAQHITLFLKYLYFLYLKCSENATMTLPGIHPPTLNQIMDWICLLLDANFTVVVMMPEAKRLLINLYKLVKSQISVYSELNKIEVSFRELQKLNQEKNNRGLYSIEVLELF | not soluble
MKVFGISGSPRLQGTHFAVNYALNYLKEKGAEVRYFSVSRKKINFCLHCDYCIKKKEGCIHKDDMEEVYENLIWADGVIIGTPVYQGNVTGQLKTLMDRCRAILAKNPKVLRGRVGMAIAVGGDRNGGQEIALRTIHDFFIINEMIPVGGGSFGANLGATFWSKDRGKKGVEEDEEGLRVLRKTLNRFYEVLKEKRGLLEHHHHHH | not soluble
SINVYLSLFSQGAESITTYTFNTHKAQHTFCKRCGVQSFYTPRSNPGGFGIAPHCLDEGTVRSVVTEEFNGSDWERAMKEHKTIKNMSKE | soluble
MSLINRFSVPLLETSTIDLANVASNKIEPETVLTNARILSTYSDRILKDKELWIFKGRIACIKPSGSYKEFFQMDKSKIYEVNNNILAPGLIDPHMHIESSMMTGCAYAEAALLNGTTTIFCDSHEIGNVCDTDGIEWMLQDCRESPISIFLTLPSTIPATNKYLETAGGDLTDKKTAILFDKWPEIKGLGEKMDFVSVCEGNERSHSIISETLKRNLPVSGHVFGREFVAAYAASGITDTHEAEDKLFTNDLLDAGLWIFLRGGNPKTPWNSIKEAIKVITESEASTKRICVCTDDRDADDLFNFGLDWVVRQANTLGINNTTAWSMGSLHPATRFNIDRDYGALGHSRRADIVMINDNLEVLNTWLGGHLAVENKKITSLIDKQLSENRYQYPKRAYNTVILPKKINFIPDMPKESEFKINVIKTELPGIMTFKETIHIKEGHHHHHH | soluble
MSLNRPAPVEISYENMRFLITHNPTNATLNKFTEELKKYGVTTLVRVCDATYDKAPVEKEGIHVLDWPFDDGAPPPNQIVDDWLNLLKTKFREEPGCCVAVHCVAGLGRAPVLVALALIECGMKYEDAVQFIRQKRRGAFNSKQLLYLEKYRPKMRLRFRDTNGEGHHHHHH | soluble
MSLDRQLWRQFPQVEPQLTALQDYLLRTVQLDNQPIHHKILALLKSGGKLLRPGYFYLFSTFGNAATPAQLQAGAAAIEILHVGTLIHDDVIDDSPTRRGVRTIQMTYGQRNAIYAGDFMFTVYFDQVLKSTTDRSLIQNHIDAMHRILQGELHQMDLNYREDITLDAYLNEIAGKTAELFALSCYQGAQLAGAPQSVIDRTRDIGIAIGCAYQMLDDILDYAGDPKRTQKPVLEDLRSGVYSLPLLLSLSHAPRDFHKLLKKKQAMTLEDIKHVQALVAQYDGVGAAKQLAQDYTDRALTLIQQLPVGSAQQSLEQLTRLLLRRDHEGHHHHHH | soluble
MGSDKIHHHHHHMVNPKLPVIWYGGDYYPEQWDEETFERDIRMFKEAGINVVTIGVFSWSLIQPDENTYDFSFFEKVMDRLYKEGIYVCLATPTSAPPHWMTQKYPEILFTDVNGVKREKGGRQNFCPNSEKYRYFARNIAEKLAEHFKDHPALVLWHVNNEYLNYCYCDICRGKFQNWLKEKYGTLDELNRRWNTRFWSQTFTAWEEIPVPTTRSVLVWRKDRYQSVLPELYLDYRRFMTQSMLECFLEEYRAIKKHTPDIPVTTNLIAATFKEWNYFEWAKHMDVAAWDNYPGYKEDFSVISLRHSLIRCLKEGKPFVLMEQSPSQACWRWYNPQKRPGEMRLWSYHALAHGAETLMFFQLRQSKGGVEKFHGAVITHVDSPNTRVFQEVKRVGEEIKSLSDILDARVVSQTALLFDWESWWAMEDTLTPSVDFRYLNEVQKYFKALVKTGLGVDVVGKDQNFERYRVLVAPVLYMVGKELAQKLKDYVSNGGILILTTMSGIVDEDDQVVLGGYPGYLRDLMGGYVEEIDALPPEEKNEILMFGKRYECSLVFDYIKTTTAEVLGRFGRDYYMNEPAVLRNNYGKGWVYYVGSSTSFDLVWDLVKFMEREHNLRAEIAPPDDVEVIKKIKGEKIFYFLFNHSHELQIVDLPEGMFRDLIKGNLYEKKVKLQPLDVLILLKE | not soluble
MAHHHHHHMILKEETVLRKTNAENLAAVRNLNLWGEGLTDVSIVSRLPRIEVLALAANKLTTLSPFAACTQLEELYLRRNNVASMLEIKYLRHLPKLHTLWLMDNPCARHPHYRQIVILCCRHLRHLDETEVSEKERAEAEKLLPEGMLQEMLESESAEAAVGTANKAQLQNRTPVSERKQPMGEVVQGGAIHETGAGRERGHRVTSSDTSGRGPSSAPERRQGSADDGLAQTAVQVQRAMFSSIMALVPELAVQTIEALQKELAEELCRRGKRLPPVVRDRT | not soluble
MSLDVDLAPPGPLAAGGLRVTALGGISEIGRNMTVFEHLGRLLIIDCGVMFPTHDEPGVDLILPDLRHIEDRLDDIEALVLTHAHEDHIGGIPYLLKLRPDIPVVGSKFTLALVAAKCREHRLKPVFVEVSEGHKSTHGVFECEYFAVNHSIPDALAIAVHTGAGTVLHTGDIKLDQLPLDGRPTDLPGMSRLGDAGVDLFLCDSTNAELPGVGPSESEVGPTLHRLIRGAEGRVIVACFASNVDRVQQIIDAAVALGRRVSFVGRSMVRNMGIARELGFLRVADADVIDIGAAELMPPERVVLITTGTQGEPMSALSRMSRGEHRSITLTAGDLVVLASSLIPGNEEAVYGVIDELAKIGARVVTNAQARVHVSGHAYAGELLFLYNGVRPRHVMPVHGTWRMLRANSKLAARTGVPEESILLAENGVSVDLVAGRASISGAVPVGKMFVDGLVDGDVGDITLGERLILSSGFVAVTVVVQRGTGRPVAPPHLHSRGFSEDPKALEPAVRRVEEELEALVAENITDPSRIAQGVRRTVGKWVGETYRRQPMIVPTVIEVEGHHHHHH | soluble
MSTTIQYNSNYADYSISSYLREWANNFGDIDQAPAETKDRGSFSGSSTLFSGTQYAIGSSHSNPEGMIAEGDLKYSFMPQHTFHGQIDTLQFGKDLATNAGGPSAGKHLEKIDITFNELDLSGEFDSGKSMTENHQGDMHKSVRGLMKGNPDPMLEVMKAKGINVDTAFKDLSIASQYPDSGYMSDAPMVDTVGVVDCHDMLLAA | not soluble
MNTQSLMSSTHTIAASDPHIQVMGRTHINDDASLTFGYPGVSLSTIVAGSRLTAEMQSSNGNSWIDVIIDNHPPTSIKLDAQQQTVELFHFPNSGEHRVEIIHRSENWHGQVTLKQLTLTGTQFLPAPVLPQRKILVLGDSVTCGEAIDRVAGEDKNTRWWNARESYGMLTAKALDAQVQLVCWGGRGLIRSWNGKTDDANLPDFYQFTLGDTGQAPQWDHHRYQPDLIISAIGTNDFSPGIPDRATYINTYTRFVRTLLDNHPQATIVLTEGAILNGDKKAALVSYIGETRQQLHSNRVFYASSSHHPGDNSDAHPTKDQHAAMARELTPQLRQIMDWLEHHHHHH | soluble
MGSDKIHHHHHHMPTPRPWLYLGTTHALCEDCLALIPAKVVAEDGCVWHLKRCPAHGPQRTMISSDYAYWREARDFIKPGDLPAHFHTQVDKGCPHDCGLCPDHEQHSCLALVEVTDSCGLDCPTCFAQSRPGRGHRSLAEVEAMLDAVVRSEGGSPDIVQISGGEPADHPQILEILRAAKARPIRHVMLNTNGVRLARDPDFATALAGLGPGFEVYLQWDSLEPEALSVLRGADLREVRKGALAALDRHGISTTLVCVMAKGVNDGEVGAIIDHALAVACVRGVSFQPLQDAGRSPGLGKDSRMLPSDIRRAIIEQSNGLFGPADLVPLPCNPESITIAYALRHGNRATAVTGLVPRDLLLSAVPNALTFDAVPGLKDSLMRLLSMSCAGEDTAVQMGKLLCCLPGIQAPASLTYDKVFRLSIVQFLDRYSFCLGQVKRACVHVAQPDGKMIPIDTFNLFHRSNNHD | not soluble
MAYWLFKTEPDTFSIDTLRTQKVSCWEGVRNYQARNMMRDQVKVGDFVLIYHSSCKNVGVAGIAKVVREAYPDHFQFDPESDYYDPKSDPDNPRWIMVDIEFVRKTARVIPLSVMKAMPELENMPLVKRGNRLSIMPVTEDEWEAILGKEKLPSQRLEHHHHHH | soluble
SFSWLLRLCQKENGDEGDTRPTKKEEGILSHEKGRRKSFWRRHRSARNTSTQNSNITNQISNINKVRELKLDMRKISNDMEEMCGILNLYMYEDLNYRMNTEFNIIKSQHEKTMLDMDKMTQSIIASMKFSEELLKDNYSYSIKQKRGSVRRPARTCVSQVPRSSRCDHEIPQISDPDGSLHSSWDLGSIVSSEPD | soluble
MGSDKIHHHHHHMAAVAHVKIDAAGEKRVLYLVDKSGFGGVQTIAYTLMRHGVDERIGMDFFFLRNINDRFGMEDVREPNVFYSRATHRYSLRPFVEILRFIREKKVSILHLNGNKSIILGLVIKKLFQPTIKIIAHEHGGVFDYSRWYAAFLKSFRNSFDLFITISNYRKHFLVERCLVAPSAIRVIDNFVDPARLATASASACGHTDRCDSEGDKPFVIGYVGGLSRIKGCDVLIRALPPLRERLGNFRVMIAGDGPARAELEELVAALGLGDIVSFLGFVDPPGIAYAQFDMMVIPSRSEEGPICLYEAWMMGLPVVASNAPVLNERIRDGETGILFQSDEPCDLAEKIYSVCRNPDVAAHIRAGGSCEAARHTVERYRGDLRDVYLSL | not soluble
MNTPRIPIASHQAVMRCLRDKLQQANLTLQTDYTEPAVSYQQRGATAGTAWLQHWEIRLNPVLLQENQQTFIDEVVPHELAHLLVYARFGRVAPHGKEWRWMMENVLHVPAKRTHRFAVQSVQGKTFTYLCDCQRHELTIRRHNRVLRGETEYRCRRCGKTLRHDVKSSILEHHHHHH | soluble
